From publication PMC8589321 (Science Advances, 2021)

Molecular target: T1, complex I subunit ND1 (Yarrowia lipolytica) (Yarrowia lipolytica, UniProt Q9B6E8 1-341)
T1 sequence (looked up): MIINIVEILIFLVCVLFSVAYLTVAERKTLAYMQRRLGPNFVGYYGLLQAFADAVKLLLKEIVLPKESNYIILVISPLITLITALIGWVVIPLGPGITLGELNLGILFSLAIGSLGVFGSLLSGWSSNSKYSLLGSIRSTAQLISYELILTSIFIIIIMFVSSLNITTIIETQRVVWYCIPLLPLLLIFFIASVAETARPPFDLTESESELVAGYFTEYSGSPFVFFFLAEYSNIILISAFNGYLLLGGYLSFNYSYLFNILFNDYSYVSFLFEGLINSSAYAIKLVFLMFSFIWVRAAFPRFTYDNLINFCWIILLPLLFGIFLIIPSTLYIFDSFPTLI
Assay: cryo-EM structure

B1: complex I subunit ND6 (Yarrowia lipolytica) (natural protein, UniProt Q9B6E9 1-185, looked up)
chain: MMYLTYYFIEITIFLAILCTIFIISAKNPMVSILYMIALFVIAAMYLYLIGLGIFSLLYIMIYIGAIAVLFLFIITLLDINSTELSVKSNIRDLPLVLISLIVLTISGLMIYSNDSILINKLLEAFGNDYNTIITQDWFNIENTTLLTTIGNVLLTNNAFILLVLAIVLLLGIIGPISITMKHKE
binding result: binds
